Source: the RNAGym collection of RNA variant scans (doi:10.7554/elife.90254)

B1: LINE1-full (parent)
chain: UACGUAGGUGGUUUUCCCCUGAUAGUGCUAAGGGGGCCUGGAAGUUUGGACUGGGCAGAGCUCAACACAGCGUGGCAAAGUGGCUGUGGCUAGACUGCCUCUCUGGAUUCCUCGUCACUCAGCAGGGCAUCUCUGAGAGAAAUGCC

Variants of: B1
Test: self-cleavage, relative activity (ratio to wild type); higher = more cleavage; in vitro, sequencing; the parent is a self-cleaving ribozyme

Variant | self-cleavage
UACGUAGGUGGUUUUCCCCUGAUAGUGCUAAGGGGGCCCGGAAGUUUGGACUGGGCAGAGCUCAACACAGCGUGGCAAAGUGGCUGUGGCUAGACUGCCUCUCUGGAUUCCUCGUCACUCAGCAGGGCAUCUCUGAGAGAAAUACC [U39C G144A] | 0.85
UACGUAGGUGGUUUUCCCCUGAUAGUGCUAAGGGGGCCCGGAAGCUUGGACUGGGCAGAGCUCAACACAGCGUGGCAAAGUGGCUGUGGCUAGACUGCCUCUCUGGAUUCCUCGUCACUCAGCAGGGCAUCUCUGAGAGAAAUGCC [U39C U45C] | 1.54
UACGUAGGUGGUUUUCCCCUGAUAGUGCUAAGGGGGCCCGGAAGUCUGGACUGGGCAGAGCUCAACACAGCGUGGCAAAGUGGCUGUGGCUAGACUGCCUCUCUGGAUUCCUCGUCACUCAGCAGGGCAUCUCUGAGAGAAAUGCC [U39C U46C] | 1.56
UACGUAGGUGGUUUUCCCCUGAUAGUGCUAAGGGGGCCCGGAAGUUCGGACUGGGCAGAGCUCAACACAGCGUGGCAAAGUGGCUGUGGCUAGACUGCCUCUCUGGAUUCCUCGUCACUCAGCAGGGCAUCUCUGAGAGAAAUGCC [U39C U47C] | 1.91
UACGUAGGUGGUUUUCCCCUGAUAGUGCUAAGGGGGCCCGGAAGUUUGGACAGGGCAGAGCUCAACACAGCGUGGCAAAGUGGCUGUGGCUAGACUGCCUCUCUGGAUUCCUCGUCACUCAGCAGGGCAUCUCUGAGAGAAAUGCC [U39C U52A] | 1.4
UACGUAGGUGGUUUUCCCCUGAUAGUGCUAAGGGGGCCCGGAAGUUUGGACCGGGCAGAGCUCAACACAGCGUGGCAAAGUGGCUGUGGCUAGACUGCCUCUCUGGAUUCCUCGUCACUCAGCAGGGCAUCUCUGAGAGAAAUGCC [U39C U52C] | 0.37
UACGUAGGUGGUUUUCCCCUGAUAGUGCUAAGGGGGCCCGGAAGUUUGGACUGGGCAGAGCACAACACAGCGUGGCAAAGUGGCUGUGGCUAGACUGCCUCUCUGGAUUCCUCGUCACUCAGCAGGGCAUCUCUGAGAGAAAUGCC [U39C U62A] | 0.04
UACGUAGGUGGUUUUCCCCUGAUAGUGCUAAGGGGGCCCGGAAGUUUGGACUGGGCAGAGCUCAACACAGCGUGGCAAAGAGGCUGUGGCUAGACUGCCUCUCUGGAUUCCUCGUCACUCAGCAGGGCAUCUCUGAGAGAAAUGCC [U39C U81A] | 1.44
UACGUAGGUGGUUUUCCCCUGAUAGUGCUAAGGGGGCCCGGAAGUUUGGACUGGGCAGAGCUCAACACAGCGUGGCAAAGCGGCUGUGGCUAGACUGCCUCUCUGGAUUCCUCGUCACUCAGCAGGGCAUCUCUGAGAGAAAUGCC [U39C U81C] | 1.45
UACGUAGGUGGUUUUCCCCUGAUAGUGCUAAGGGGGCCCGGAAGUUUGGACUGGGCAGAGCUCAACACAGCGUGGCAAAGUGGCAGUGGCUAGACUGCCUCUCUGGAUUCCUCGUCACUCAGCAGGGCAUCUCUGAGAGAAAUGCC [U39C U85A] | 0.05
UACGUAGGUGGUUUUCCCCUGAUAGUGCUAAGGGGGCCCGGAAGUUUGGACUGGGCAGAGCUCAACACAGCGUGGCAAAGUGGCCGUGGCUAGACUGCCUCUCUGGAUUCCUCGUCACUCAGCAGGGCAUCUCUGAGAGAAAUGCC [U39C U85C] | 0.18
UACGUAGGUGGUUUUCCCCUGAUAGUGCUAAGGGGGCCCGGAAGUUUGGACUGGGCAGAGCUCAACACAGCGUGGCAAAGUGGCUGAGGCUAGACUGCCUCUCUGGAUUCCUCGUCACUCAGCAGGGCAUCUCUGAGAGAAAUGCC [U39C U87A] | 0.06
UACGUAGGUGGUUUUCCCCUGAUAGUGCUAAGGGGGCCCGGAAGUUUGGACUGGGCAGAGCUCAACACAGCGUGGCAAAGUGGCUGUGGCCAGACUGCCUCUCUGGAUUCCUCGUCACUCAGCAGGGCAUCUCUGAGAGAAAUGCC [U39C U91C] | 0.33
UACGUAGGUGGUUUUCCCCUGAUAGUGCUAAGGGGGCCCGGAAGUUUGGACUGGGCAGAGCUCAACACAGCGUGGCAAAGUGGCUGUGGCUAGACUGCCACUCUGGAUUCCUCGUCACUCAGCAGGGCAUCUCUGAGAGAAAUGCC [U39C U100A] | 0.53
UACGUAGGUGGUUUUCCCCUGAUAGUGCUAAGGGGGCCCGGAAGUUUGGACUGGGCAGAGCUCAACACAGCGUGGCAAAGUGGCUGUGGCUAGACUGCCCCUCUGGAUUCCUCGUCACUCAGCAGGGCAUCUCUGAGAGAAAUGCC [U39C U100C] | 2.36
UACGUAGGUGGUUUUCCCCUGAUAGUGCUAAGGGGGCCCGGAAGUUUGGACUGGGCAGAGCUCAACACAGCGUGGCAAAGUGGCUGUGGCUAGACUGCCGCUCUGGAUUCCUCGUCACUCAGCAGGGCAUCUCUGAGAGAAAUGCC [U39C U100G] | 0.59
UACGUAGGUGGUUUUCCCCUGAUAGUGCUAAGGGGGCCCGGAAGUUUGGACUGGGCAGAGCUCAACACAGCGUGGCAAAGUGGCUGUGGCUAGACUGCCUCCCUGGAUUCCUCGUCACUCAGCAGGGCAUCUCUGAGAGAAAUGCC [U39C U102C] | 0.99
UACGUAGGUGGUUUUCCCCUGAUAGUGCUAAGGGGGCCCGGAAGUUUGGACUGGGCAGAGCUCAACACAGCGUGGCAAAGUGGCUGUGGCUAGACUGCCUCUCAGGAUUCCUCGUCACUCAGCAGGGCAUCUCUGAGAGAAAUGCC [U39C U104A] | 0.89
UACGUAGGUGGUUUUCCCCUGAUAGUGCUAAGGGGGCCCGGAAGUUUGGACUGGGCAGAGCUCAACACAGCGUGGCAAAGUGGCUGUGGCUAGACUGCCUCUCGGGAUUCCUCGUCACUCAGCAGGGCAUCUCUGAGAGAAAUGCC [U39C U104G] | 0.93
UACGUAGGUGGUUUUCCCCUGAUAGUGCUAAGGGGGCCCGGAAGUUUGGACUGGGCAGAGCUCAACACAGCGUGGCAAAGUGGCUGUGGCUAGACUGCCUCUCUGGAAUCCUCGUCACUCAGCAGGGCAUCUCUGAGAGAAAUGCC [U39C U108A] | 1.22

Variant | self-cleavage
UACGUAGGUGGUUUUCCCCUGAUAGUGCUAAGGGGGCCCGGAAGUUUGGACUGGGCAGAGCUCAACACAGCGUGGCAAAGUGGCUGUGGCUAGACUGCCUCUCUGGAUACCUCGUCACUCAGCAGGGCAUCUCUGAGAGAAAUGCC [U39C U109A] | 1.15
UACGUAGGUGGUUUUCCCCUGAUAGUGCUAAGGGGGCCCGGAAGUUUGGACUGGGCAGAGCUCAACACAGCGUGGCAAAGUGGCUGUGGCUAGACUGCCUCUCUGGAUUCCACGUCACUCAGCAGGGCAUCUCUGAGAGAAAUGCC [U39C U112A] | 1.45
UACGUAGGUGGUUUUCCCCUGAUAGUGCUAAGGGGGCCCGGAAGUUUGGACUGGGCAGAGCUCAACACAGCGUGGCAAAGUGGCUGUGGCUAGACUGCCUCUCUGGAUUCCUCGACACUCAGCAGGGCAUCUCUGAGAGAAAUGCC [U39C U115A] | 1.05
UACGUAGGUGGUUUUCCCCUGAUAGUGCUAAGGGGGCCCGGAAGUUUGGACUGGGCAGAGCUCAACACAGCGUGGCAAAGUGGCUGUGGCUAGACUGCCUCUCUGGAUUCCUCGCCACUCAGCAGGGCAUCUCUGAGAGAAAUGCC [U39C U115C] | 1.37
UACGUAGGUGGUUUUCCCCUGAUAGUGCUAAGGGGGCCCGGAAGUUUGGACUGGGCAGAGCUCAACACAGCGUGGCAAAGUGGCUGUGGCUAGACUGCCUCUCUGGAUUCCUCGUCACACAGCAGGGCAUCUCUGAGAGAAAUGCC [U39C U119A] | 1.08
UACGUAGGUGGUUUUCCCCUGAUAGUGCUAAGGGGGCCCGGAAGUUUGGACUGGGCAGAGCUCAACACAGCGUGGCAAAGUGGCUGUGGCUAGACUGCCUCUCUGGAUUCCUCGUCACCCAGCAGGGCAUCUCUGAGAGAAAUGCC [U39C U119C] | 1.38
UACGUAGGUGGUUUUCCCCUGAUAGUGCUAAGGGGGCCCGGAAGUUUGGACUGGGCAGAGCUCAACACAGCGUGGCAAAGUGGCUGUGGCUAGACUGCCUCUCUGGAUUCCUCGUCACGCAGCAGGGCAUCUCUGAGAGAAAUGCC [U39C U119G] | 1.36
UACGUAGGUGGUUUUCCCCUGAUAGUGCUAAGGGGGCCCGGAAGUUUGGACUGGGCAGAGCUCAACACAGCGUGGCAAAGUGGCUGUGGCUAGACUGCCUCUCUGGAUUCCUCGUCACUCAGCAGGGCACCUCUGAGAGAAAUGCC [U39C U130C] | 2.49
UACGUAGGUGGUUUUCCCCUGAUAGUGCUAAGGGGGCCCGGAAGUUUGGACUGGGCAGAGCUCAACACAGCGUGGCAAAGUGGCUGUGGCUAGACUGCCUCUCUGGAUUCCUCGUCACUCAGCAGGGCAGCUCUGAGAGAAAUGCC [U39C U130G] | 1.75
UACGUAGGUGGUUUUCCCCUGAUAGUGCUAAGGGGGCCCGGAAGUUUGGACUGGGCAGAGCUCAACACAGCGUGGCAAAGUGGCUGUGGCUAGACUGCCUCUCUGGAUUCCUCGUCACUCAGCAGGGCAUCUCAGAGAGAAAUGCC [U39C U134A] | 0.86
UACGUAGGUGGUUUUCCCCUGAUAGUGCUAAGGGGGCCCGGAAGUUUGGACUGGGCAGAGCUCAACACAGCGUGGCAAAGUGGCUGUGGCUAGACUGCCUCUCUGGAUUCCUCGUCACUCAGCAGGGCAUCUCCGAGAGAAAUGCC [U39C U134C] | 1.5
UACGUAGGUGGUUUUCCCCUGAUAGUGCUAAGGGGGCCCGGAAGUUUGGACUGGGCAGAGCUCAACACAGCGUGGCAAAGUGGCUGUGGCUAGACUGCCUCUCUGGAUUCCUCGUCACUCAGCAGGGCAUCUCGGAGAGAAAUGCC [U39C U134G] | 1.39
UACGUAGGUGGUUUUCCCCUGAUAGUGCUAAGGGGGCCGGGAAGUUUGGACUGGGCAGAGCUCACCACAGCGUGGCAAAGUGGCUGUGGCUAGACUGCCUCUCUGGAUUCCUCGUCACUCAGCAGGGCAUCUCUGAGAGAAAUGCC [U39G A65C] | 0.04
UACGUAGGUGGUUUUCCCCUGAUAGUGCUAAGGGGGCCGGGAAGUUUGGACUGGGCAGAGCUCAACACAGCGUGGCGAAGUGGCUGUGGCUAGACUGCCUCUCUGGAUUCCUCGUCACUCAGCAGGGCAUCUCUGAGAGAAAUGCC [U39G A77G] | 1.53
UACGUAGGUGGUUUUCCCCUGAUAGUGCUAAGGGGGCCGGGAAGUUUGGACUGGGCAGAGCUCAACACAGCGUGGCAAGGUGGCUGUGGCUAGACUGCCUCUCUGGAUUCCUCGUCACUCAGCAGGGCAUCUCUGAGAGAAAUGCC [U39G A79G] | 1.28
UACGUAGGUGGUUUUCCCCUGAUAGUGCUAAGGGGGCCGGGAAGUUUGGACUGGGCAGAGCUCAACACAGCGUGGCAAAGUGGCUGUGGCUAGACUGCCUCUCUGGAUUCCUCGUCACUCGGCAGGGCAUCUCUGAGAGAAAUGCC [U39G A121G] | 1.23
UACGUAGGUGGUUUUCCCCUGAUAGUGCUAAGGGGGCCGGGAAGUUUGGACUGGGCAGAGCUCAACACAGCGUGGCAAAGUGGCUGUGGCUAGACUGCCUCUCUGGAUUCCUCGUCACUCAGCAGGGCAUCUCUGGGAGAAAUGCC [U39G A136G] | 1.65
UACGUAGGUGGUUUUCCCCUGAUAGUGCUAAGGGGGCCGGGAAGUUUGGACUGGGCAGAGCUCAACACAGCGUGGCAAAGUGGCUGUGGCUAGACUGCCUCUCUGGAUUCCUCGUCACUCAGCAGGGCAUCUCUGAGAGGAAUGCC [U39G A140G] | 1.31
UACGUAGGUGGUUUUCCCCUGAUAGUGCUAAGGGGGCCGGGAAGUUUGGACUGGGCAGAGCUCAACACAGCGUGGCAAAGUGGCUGUGGCUAGACUGCCUCUCUGGAUUCCUCGUCACUCAGCAGGGCAUCUCUGAGAGAAGUGCC [U39G A142G] | 0.77
